The record followed here is paper PMC13486833 (2026).

The chains are these.
B1: DS-HMGB1 1–164 (domain or fragment)
chain: GKGDPKKPRGKMSSYAFFVQTCREEHKKKHPDASVNFSEFSKKCSERWKTMSAKEKGKFEDMAKADKARYEREMKTYIPPKGETKKKFKDPNAPKRPPSAFFLFCSEYRPKIKGEHPGLSIGDVAKKLGEMWNNTAADDKQPYEKKAAKLKEKYEKDIAAYRAK
modifications: disulfide bond between C22 and C44
B2: DS Box A 1-88 (protein)
chain: GKGDPKKPRGKMSSYAFFVQTCREEHKKKHPDASVNFSEFSKKCSERWKTMSAKEKGKFEDMAKADKARYEREMKTYIPPKGETKKKF
modifications: intramolecular disulfide Cys22-Cys44 in paper numbering (UniProt Cys23-Cys45); paper numbering omits the initiator Met (offset +1: paper Pro8-Ile78 = UniProt 9-79); any initiator Met or tag remnant left out
B3: FR-HMGB1 1–214 (natural protein)
chain: MGKGDPKKPRGKMSSYAFFVQTCREEHKKKHPDASVNFSEFSKKCSERWKTMSAKEKGKFEDMAKADKARYEREMKTYIPPKGETKKKFKDPNAPKRPPSAFFLFCSEYRPKIKGEHPGLSIGDVAKKLGEMWNNTAADDKQPYEKKAAKLKEKYEKDIAAYRAKGKPDAAKKGVVKAEKSKKKKEEEEDEEDEEDEEEEEDEEDEDEEEDDDDE
B4: DS-HMGB1 1–214 (natural protein)
chain: B3 chain
modifications: disulfide bond between C22 and C44
B5: DS-HMGB1 1–184 (domain or fragment)
chain: GKGDPKKPRGKMSSYAFFVQTCREEHKKKHPDASVNFSEFSKKCSERWKTMSAKEKGKFEDMAKADKARYEREMKTYIPPKGETKKKFKDPNAPKRPPSAFFLFCSEYRPKIKGEHPGLSIGDVAKKLGEMWNNTAADDKQPYEKKAAKLKEKYEKDIAAYRAKGKPDAAKKGVVKAEKSKKKK
modifications: disulfide bond between C22 and C44
B6: 3S-HMGB1 1–214 (natural protein)
chain: GKGDPKKPRGKMSSYAFFVQTSREEHKKKHPDASVNFSEFSKKSSERWKTMSAKEKGKFEDMAKADKARYEREMKTYIPPKGETKKKFKDPNAPKRPPSAFFLFSSEYRPKIKGEHPGLSIGDVAKKLGEMWNNTAADDKQPYEKKAAKLKEKYEKDIAAYRAKGKPDAAKKGVVKAEKSKKKKEEEEDEEDEEDEEEEEDEEDEDEEEDDDDE
B7: dBB12L (FR-HMGB1 89–174::89–174) (other)
chain: KDPNAPKRPPSAFFLFCSEYRPKIKGEHPGLSIGDVAKKLGEMWNNTAADDKQPYEKKAAKLKEKYEKDIAAYRAKGKPDAAKKGVKDPNAPKRPPSAFFLFCSEYRPKIKGEHPGLSIGDVAKKLGEMWNNTAADDKQPYEKKAAKLKEKYEKDIAAYRAKGKPDAAKKGV
modifications: fully reduced Cys105 (printed numbering) in both copies; printed n = entry n+1 (C22/C44/C105 = C23/C45/C106 in P09429); direct tandem fusion, with native flanks acting as the linker

In one experiment the target is T1, RAGE-Fc chimera protein (UniProt Q15109 23-342). Put plainly: BLI. (Biolayer interferometry detects binding as a change in optical thickness at a sensor tip.)
T1 sequence (Q15109 23-342, change not shown): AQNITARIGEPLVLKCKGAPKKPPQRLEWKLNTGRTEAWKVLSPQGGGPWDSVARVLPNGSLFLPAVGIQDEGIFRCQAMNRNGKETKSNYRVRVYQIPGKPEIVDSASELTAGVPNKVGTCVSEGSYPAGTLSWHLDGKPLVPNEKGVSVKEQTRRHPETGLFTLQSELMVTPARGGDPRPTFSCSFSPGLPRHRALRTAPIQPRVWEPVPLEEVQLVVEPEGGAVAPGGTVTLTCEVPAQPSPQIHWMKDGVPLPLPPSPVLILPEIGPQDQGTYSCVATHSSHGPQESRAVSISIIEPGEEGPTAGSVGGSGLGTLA
As to B1, the koff (in general, the rate constant with which the complex falls apart) is 0.152 s⁻¹.

The molecule B2 returned a koff of 0.439 s⁻¹. This koff lies about 2.9-fold higher than the previous one.

Take B3: the koff was 0.041 s⁻¹.

For B4, the off-rate constant (koff) was determined as 0.043 s⁻¹.

In turn, B5 gave an off-rate constant (koff) of 0.067 s⁻¹.

For B6, the koff was determined as 0.015 s⁻¹. This koff is about 4.5-fold lower than that of the molecule before.

In a further experiment the target is T1, RAGE-Fc chimera protein. Put plainly: ELISA. (In general: In an ELISA, binding on a coated surface is turned into a signal by an enzyme label.)
Consider B3, for which binding was put at a Kd of 86.1 nM.

Consider B4, for which the Kd – broadly, the constant that tells how readily two partners part at equilibrium – was found to be 4.35 nM.

B5: the Kd is 33.9 nM.

In the case of B6, binding was characterised by a dissociation constant (Kd) of 7.22 nM.

The target of the next experiment is T1, RAGE-Fc chimera protein. The experiment is described as follows: BLI; kinetics.
B1 registered a Kd of 900 nM.

On to B2, for which the Kd is 15600 nM.

B3 had a Kd of 800 nM.

As for B4, the Kd was 200 nM.

Molecule B5 had an equilibrium dissociation constant (Kd) of 200 nM. In other words, the sub-micromolar range.

On to B6, for which the affinity, expressed as Kd, was 900 nM.

For the molecule B7, the Kd is 1300 nM.

For another experiment, the target named is T1, RAGE-Fc chimera protein. Put plainly: BLI; saturation.
Turning to B1, binding was put at a Kd of 3100 nM.

With B2, binding was characterised by a dissociation constant (Kd) of 53400 nM.

The molecule B3 gave a Kd of 2300 nM.

In turn, B4 came in with a Kd of 1300 nM.

As to B5, the Kd worked out at 500 nM. This Kd is about 2.6-fold lower than that of the molecule before.

As for B6, binding was put at a Kd of 3000 nM.
